Results taken from US20150344570A1 (published 2015).

T1: FcγRIIb (human, UniProt P31994 43-217)
T1 construct: extracellular domain; also called FcgRIIb; 2b
T1 sequence (looked up): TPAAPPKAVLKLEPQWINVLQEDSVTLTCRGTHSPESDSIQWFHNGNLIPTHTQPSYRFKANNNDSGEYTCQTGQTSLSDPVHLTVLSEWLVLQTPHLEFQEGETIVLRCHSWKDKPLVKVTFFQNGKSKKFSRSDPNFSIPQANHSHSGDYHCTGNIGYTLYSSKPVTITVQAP

T2: FcγRIIa R (FcγRIIa allotype with Arg at position 131), extracellular domain with C-terminal His tag (human, UniProt P12318 34-217)
T2 construct: extracellular domain; made in FreeStyle293 cells; analyte in the Biacore assay; also called FcγRIIa type R; 2aR
T2 sequence (looked up): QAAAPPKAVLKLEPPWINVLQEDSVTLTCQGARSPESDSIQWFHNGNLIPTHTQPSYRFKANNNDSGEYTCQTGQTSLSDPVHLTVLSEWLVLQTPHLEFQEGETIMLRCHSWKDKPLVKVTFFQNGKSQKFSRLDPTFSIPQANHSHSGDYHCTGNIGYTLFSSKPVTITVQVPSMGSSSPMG

T3: FcγRIIb, extracellular domain with C-terminal His tag (human, UniProt P31994 43-217)
T3 construct: extracellular domain; made in FreeStyle293 cells; analyte in the Biacore assay; also called 2b; FcgRIIb
T3 sequence (looked up): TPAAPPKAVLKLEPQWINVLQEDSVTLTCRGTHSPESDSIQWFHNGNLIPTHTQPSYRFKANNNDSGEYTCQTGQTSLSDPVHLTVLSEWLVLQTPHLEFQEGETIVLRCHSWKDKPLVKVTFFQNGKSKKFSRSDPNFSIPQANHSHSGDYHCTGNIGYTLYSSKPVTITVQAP

T4: FcγRIIb, extracellular domain with C-terminal His tag (human, UniProt P31994 43-217)
T4 construct: extracellular domain; also called 2b; FcgRIIb; not shown: His tag at the C terminus
T4 sequence (looked up): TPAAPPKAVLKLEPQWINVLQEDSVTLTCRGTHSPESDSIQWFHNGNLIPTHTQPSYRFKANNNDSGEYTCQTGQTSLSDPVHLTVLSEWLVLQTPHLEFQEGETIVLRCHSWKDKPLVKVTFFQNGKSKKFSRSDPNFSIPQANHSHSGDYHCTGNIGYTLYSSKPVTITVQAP


Columns and labels:
FcγRIIb = molecular target: T1, FcγRIIb; assay: SPR (Biacore), relative binding
FcγRIIIa = molecular target: T5, FcγRIIIa (human, UniProt P08637 17-208); assay: SPR (Biacore), relative binding
T5 construct: extracellular domain; also called FcgRIIIa; 3a
T5 sequence (P08637 17-208): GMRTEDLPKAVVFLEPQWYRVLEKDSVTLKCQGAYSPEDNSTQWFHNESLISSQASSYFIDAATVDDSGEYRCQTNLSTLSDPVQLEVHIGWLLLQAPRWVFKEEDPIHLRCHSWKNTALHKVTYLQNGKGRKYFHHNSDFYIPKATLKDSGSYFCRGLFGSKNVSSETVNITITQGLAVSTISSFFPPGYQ

[1] = molecular target: T2, FcγRIIa R (FcγRIIa allotype with Arg at …); assay: SPR (Biacore), antibody captured, FcγR analyte; vs GpH7-A5/GpH7-B3/GpL16-k0 = 100
[2] = molecular target: T3, FcγRIIb, extracellular domain with …; assay: as above
[3] = molecular target: T4, FcγRIIb, extracellular domain with …; assay: SPR (Biacore), relative binding, GpH7-A5/GpH7-B3/GpL16-k0 = 100

| He/Con_2b (FcγRIIb) | He/Con_3a (FcγRIIIa) | He/Con_2aR [1] | He/Con_2b [2] | He/Con_2b [3] | Binder |
| --- | --- | --- | --- | --- | --- |
| 172 % of GpH7-A5/GpH7-B3/GpL16-k0 | 83.7 % of GpH7-A5/GpH7-B3/GpL16-k0 |  |  |  | GpH7-A5/GpH7-B3 variant A327_09D/GpL16-k0 (antibody, human IgG1, kappa, mutation in the GpH7-B3 chain only; also called He Ab) heavy 1: not shown heavy 2: not shown light: DIVMTQSPLSLPVTPGEPASISCQASESLVHSNRNTYLHWYLQKPGQSPQLLIYKVSNRFSGVPDRFSGSGSGTDFTLKISRVEAEDVGVYYCSQNTHVPPTFGQGTKVEIERTVAAPSVFIFPPSDEQLKSGTASVVCLLNNFYPREAKVQWKVDNALQSGNSQESVTEQDSKDSTYSLSSTLTLSKADYEKHKVYACEVTHQGLSSPVTKSFNRGEC |
| 127 % of GpH7-A5/GpH7-B3/GpL16-k0 | 42.4 % of GpH7-A5/GpH7-B3/GpL16-k0 |  |  |  | GpH7-A5/GpH7-B3 variant A327_07I/GpL16-k0 (antibody, human IgG1, kappa, mutation in the GpH7-B3 chain only; also called He Ab) heavy 1: not shown heavy 2: not shown light: DIVMTQSPLSLPVTPGEPASISCQASESLVHSNRNTYLHWYLQKPGQSPQLLIYKVSNRFSGVPDRFSGSGSGTDFTLKISRVEAEDVGVYYCSQNTHVPPTFGQGTKVEIERTVAAPSVFIFPPSDEQLKSGTASVVCLLNNFYPREAKVQWKVDNALQSGNSQESVTEQDSKDSTYSLSSTLTLSKADYEKHKVYACEVTHQGLSSPVTKSFNRGEC |
| 113 % of GpH7-A5/GpH7-B3/GpL16-k0 | 61.1 % of GpH7-A5/GpH7-B3/GpL16-k0 |  |  |  | GpH7-A5/GpH7-B3 variant A327_18N/GpL16-k0 (antibody, human IgG1, kappa, mutation in the GpH7-B3 chain only; also called He Ab) heavy 1: not shown heavy 2: not shown light: DIVMTQSPLSLPVTPGEPASISCQASESLVHSNRNTYLHWYLQKPGQSPQLLIYKVSNRFSGVPDRFSGSGSGTDFTLKISRVEAEDVGVYYCSQNTHVPPTFGQGTKVEIERTVAAPSVFIFPPSDEQLKSGTASVVCLLNNFYPREAKVQWKVDNALQSGNSQESVTEQDSKDSTYSLSSTLTLSKADYEKHKVYACEVTHQGLSSPVTKSFNRGEC |
|  |  | 104 relative (HeCon Ab = 100) | 91.5 relative (HeCon Ab = 100) |  | GpH7-A5/GpH7-B3 variant Y296_18N/GpL16-k0 (antibody, human IgG1, kappa, heterodimerized IgG1, mutation in one H chain only; also called He Ab) heavy 1: not shown heavy 2: not shown light: DIVMTQSPLSLPVTPGEPASISCQASESLVHSNRNTYLHWYLQKPGQSPQLLIYKVSNRFSGVPDRFSGSGSGTDFTLKISRVEAEDVGVYYCSQNTHVPPTFGQGTKVEIERTVAAPSVFIFPPSDEQLKSGTASVVCLLNNFYPREAKVQWKVDNALQSGNSQESVTEQDSKDSTYSLSSTLTLSKADYEKHKVYACEVTHQGLSSPVTKSFNRGEC |
|  |  |  |  | 12.2 % of control | GpH7-A5/GpH7-B3 variant S267_11K/GpL16-k0 (antibody, human IgG1, kappa, He Ab; alteration in one H chain only; also called He Ab) heavy 1: not shown heavy 2: not shown light: DIVMTQSPLSLPVTPGEPASISCQASESLVHSNRNTYLHWYLQKPGQSPQLLIYKVSNRFSGVPDRFSGSGSGTDFTLKISRVEAEDVGVYYCSQNTHVPPTFGQGTKVEIERTVAAPSVFIFPPSDEQLKSGTASVVCLLNNFYPREAKVQWKVDNALQSGNSQESVTEQDSKDSTYSLSSTLTLSKADYEKHKVYACEVTHQGLSSPVTKSFNRGEC |
|  |  | 100 relative (HeCon Ab = 100) | 82.7 relative (HeCon Ab = 100) |  | GpH7-A5/GpH7-B3 variant Y300_18N/GpL16-k0 (antibody, human IgG1, kappa, heterodimerized IgG1, mutation in one H chain only; also called He Ab) heavy 1: not shown heavy 2: not shown light: DIVMTQSPLSLPVTPGEPASISCQASESLVHSNRNTYLHWYLQKPGQSPQLLIYKVSNRFSGVPDRFSGSGSGTDFTLKISRVEAEDVGVYYCSQNTHVPPTFGQGTKVEIERTVAAPSVFIFPPSDEQLKSGTASVVCLLNNFYPREAKVQWKVDNALQSGNSQESVTEQDSKDSTYSLSSTLTLSKADYEKHKVYACEVTHQGLSSPVTKSFNRGEC |
|  |  |  |  | 11.3 % of control | GpH7-A5/GpH7-B3 variant S267_12R/GpL16-k0 (antibody, human IgG1, kappa, He Ab; alteration in one H chain only; also called He Ab) heavy 1: not shown heavy 2: not shown light: DIVMTQSPLSLPVTPGEPASISCQASESLVHSNRNTYLHWYLQKPGQSPQLLIYKVSNRFSGVPDRFSGSGSGTDFTLKISRVEAEDVGVYYCSQNTHVPPTFGQGTKVEIERTVAAPSVFIFPPSDEQLKSGTASVVCLLNNFYPREAKVQWKVDNALQSGNSQESVTEQDSKDSTYSLSSTLTLSKADYEKHKVYACEVTHQGLSSPVTKSFNRGEC |
|  |  | 105 relative (HeCon Ab = 100) | 92.2 relative (HeCon Ab = 100) |  | GpH7-A5/GpH7-B3 variant Y296_16H/GpL16-k0 (antibody, human IgG1, kappa, heterodimerized IgG1, mutation in one H chain only; also called He Ab) heavy 1: not shown heavy 2: not shown light: DIVMTQSPLSLPVTPGEPASISCQASESLVHSNRNTYLHWYLQKPGQSPQLLIYKVSNRFSGVPDRFSGSGSGTDFTLKISRVEAEDVGVYYCSQNTHVPPTFGQGTKVEIERTVAAPSVFIFPPSDEQLKSGTASVVCLLNNFYPREAKVQWKVDNALQSGNSQESVTEQDSKDSTYSLSSTLTLSKADYEKHKVYACEVTHQGLSSPVTKSFNRGEC |
|  |  | 102 relative (HeCon Ab = 100) | 89.3 relative (HeCon Ab = 100) |  | GpH7-A5/GpH7-B3 variant Y296_19Q/GpL16-k0 (antibody, human IgG1, kappa, heterodimerized IgG1, mutation in one H chain only; also called He Ab) heavy 1: not shown heavy 2: not shown light: DIVMTQSPLSLPVTPGEPASISCQASESLVHSNRNTYLHWYLQKPGQSPQLLIYKVSNRFSGVPDRFSGSGSGTDFTLKISRVEAEDVGVYYCSQNTHVPPTFGQGTKVEIERTVAAPSVFIFPPSDEQLKSGTASVVCLLNNFYPREAKVQWKVDNALQSGNSQESVTEQDSKDSTYSLSSTLTLSKADYEKHKVYACEVTHQGLSSPVTKSFNRGEC |
